This passage reports stoichiometry N results from paper PMC6482348.

The target of experiment [1] is T1, endogenous mouse PrxI (mouse (endogenous in BMDMs)), P35700.
T1 chain: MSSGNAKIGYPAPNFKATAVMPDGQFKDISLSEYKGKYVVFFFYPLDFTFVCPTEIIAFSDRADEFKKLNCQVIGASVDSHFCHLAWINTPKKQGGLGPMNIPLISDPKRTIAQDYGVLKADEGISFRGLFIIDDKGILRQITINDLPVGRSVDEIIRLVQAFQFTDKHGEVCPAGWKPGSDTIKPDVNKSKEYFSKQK
In words: nonreducing SDS-PAGE and immunoblot of disulfide-linked complexes. Conditions: remark: other sources report otherwise. On the technique in general: Immunoblotting shows a protein as a band on a membrane.

For experiment [2], the target named is T2, endogenous mouse PrxII (mouse (endogenous in MEFs and BMDMs)), Q61171.
T2 chain: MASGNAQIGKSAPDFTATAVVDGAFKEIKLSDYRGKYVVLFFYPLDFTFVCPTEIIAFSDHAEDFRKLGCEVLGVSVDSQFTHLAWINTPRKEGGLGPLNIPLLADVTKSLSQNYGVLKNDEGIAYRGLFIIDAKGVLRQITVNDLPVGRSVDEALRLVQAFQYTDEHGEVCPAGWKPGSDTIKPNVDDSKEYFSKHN
Described as above. The note with it: remark: other sources report otherwise.

The stoichiometry N is a count of units in the complex or per binding partner.

B1: endogenous mouse PrxI, P35700 1-199 (enzyme)
chain: MSSGNAKIGYPAPNFKATAVMPDGQFKDISLSEYKGKYVVFFFYPLDFTFVCPTEIIAFSDRADEFKKLNCQVIGASVDSHFCHLAWINTPKKQGGLGPMNIPLISDPKRTIAQDYGVLKADEGISFRGLFIIDDKGILRQITINDLPVGRSVDEIIRLVQAFQFTDKHGEVCPAGWKPGSDTIKPDVNKSKEYFSKQK
In turn, B1 displayed a stoichiometry N in experiment [1] of 2.

B2: endogenous mouse PrxII, Q61171 1-198 (enzyme)
chain: MASGNAQIGKSAPDFTATAVVDGAFKEIKLSDYRGKYVVLFFYPLDFTFVCPTEIIAFSDHAEDFRKLGCEVLGVSVDSQFTHLAWINTPRKEGGLGPLNIPLLADVTKSLSQNYGVLKNDEGIAYRGLFIIDAKGVLRQITVNDLPVGRSVDEALRLVQAFQYTDEHGEVCPAGWKPGSDTIKPNVDDSKEYFSKHN
In turn, B2 showed a stoichiometry N in experiment [2] of 2.
